# Measurements reported in article PMC6013482, “Conformational switching of the pseudokinase domain promotes human MLKL tetramerization and cell death by necroptosis” (Nature Communications, 2018).
# Target: E351K human MLKL (residues 2–471), recombinant (human) (UniProt Q8NB16)
substance,measurement,value
"E351K human MLKL (residues 2–471), recombinant (from UniProt Q8NB16 2-471) (natural protein)","liposome dye release (5(6)-carboxyfluorescein), 1 μM protein, with ATP (% maximum dye release)",40
same,"liposome dye release (5(6)-carboxyfluorescein), 1 μM protein, without ATP",15 % of maximum
